Data as given in US10640547B2, “Immunotherapy against melanoma and other cancers” (IMMATICS BIOTECHNOLOGIES GMBH, priority 2016, dated 2020).

Biological target: HLA-A*02:01 (Homo sapiens, UniProt P04439, D140Y/D185E/D98H/E176V/E277Q/G131W/G231S/I119V/I121R/I166T/I218V/L300P/L318F/N151K/N90K/P208A/P217A/Q86G/Q94H/R138H/R169H/T345S)
Assay: MHC binding assay (UV-ligand exchange, β2m ELISA)
Details: MHC class I binding score; binding to HLA-A*02:01 ranged by peptide exchange yield (UV-ligand exchange, β2m ELISA)
Excerpt: Candidate peptides for T cell based therapies according to the present invention were further tested for their MHC binding capacity (affinity). The individual peptide-MHC complexes were produced by UV-ligand exchange, where a UV-sensitive peptide is cleaved upon UV-irradiation, and exchanged with the peptide of interest as analyzed. Only peptide candidates that can effectively bind and stabilize the peptide-receptive MHC molecules prevent dissociation of the MHC complexes. To determine the yield of the exchange reaction, an ELISA was performed based on the detection of the light chain (β2m) of stabilized MHC complexes. The assay was performed as generally described in Rodenko et al. (Rodenko et al., 2006).
96 well MAXISorp plates (NUNC) were coated over night with 2 ug/ml streptavidin in PBS at room temperature, washed 4× and blocked for 1 h at 37° C. in 2% BSA containing blocking buffer. Refolded HLA-A*02:01/MLA-001 monomers served as standards, covering the range of 15-500 ng/ml. Peptide-MHC monomers of the UV-exchange reaction were diluted 100 fold in blocking buffer. Samples were incubated for 1 h at 37° C., washed four times, incubated with 2 ug/ml HRP conjugated anti-β2m for 1 h at 37° C., washed again and detected with TMB solution that is stopped with […]. Absorption was measured at 450 nm. Candidate peptides that show a high exchange yield (preferably higher than 50%, most preferred higher than 75%) are generally preferred for a generation and production of antibodies or fragments thereof, and/or T cell receptors or fragments thereof, as they show sufficient avidity to the MHC molecules and prevent dissociation of the MHC complexes.

Peptide exchange | Substance
+++ (>50 = +++) | 93 (LLAKAVQNV; listed as Homo sapiens) [compound 93]
+++ (>50 = +++) | 94 (LLDAFSIKL; listed as Homo sapiens) [compound 94]
+++ (>50 = +++) | 95 (LLDALQHEL; listed as Homo sapiens) [compound 95]
+++ (>50 = +++) | 96 (LLDMSLVKL; listed as Homo sapiens) [compound 96]
+++ (>50 = +++) | 97 (NLDATVTAL; listed as Homo sapiens) [compound 97]
+++ (>50 = +++) | 98 (NLPNTNSILGV; listed as Homo sapiens) [compound 98]
+++ (>50 = +++) | 99 (NLPSELPQL; listed as Homo sapiens) [compound 99]
+++ (>50 = +++) | 100 (NLREILQNV; listed as Homo sapiens) [compound 100]
++ (>20% = ++) | 101 (NVDENVAEL; listed as Homo sapiens) [compound 101]
+++ (>50 = +++) | 102 (RLPDQFSKL; listed as Homo sapiens) [compound 102]
+++ (>50 = +++) | 103 (SLDAVMPHL; listed as Homo sapiens) [compound 103]
+++ (>50 = +++) | 104 (SLDQIIQHL; listed as Homo sapiens) [compound 104]
+++ (>50 = +++) | 105 (SLKQTVVTL; listed as Homo sapiens) [compound 105]
++++ (>75% = ++++) | 106 (TLSEICEFI; listed as Homo sapiens) [compound 106]
++++ (>75% = ++++) | 107 (TLVAFLQQV; listed as Homo sapiens) [compound 107]
++ (>20% = ++) | 108 (TVIRPLPGL; listed as Homo sapiens) [compound 108]
++ (>20% = ++) | 109 (VIDDLIQKL; listed as Homo sapiens) [compound 109]
+++ (>50 = +++) | 110 (VLDTLTKVL; listed as Homo sapiens) [compound 110]
+++ (>50 = +++) | 111 (VLDVSFNRL; listed as Homo sapiens) [compound 111]
+++ (>50 = +++) | 112 (VLPAVLTRL; listed as Homo sapiens) [compound 112]
+++ (>50 = +++) | 113 (VLYSLVSKI; listed as Homo sapiens) [compound 113]
++ (>20% = ++) | 114 (VVDDIVSKL; listed as Homo sapiens) [compound 114]
+++ (>50 = +++) | 115 (YIDDVFMGL; listed as Homo sapiens) [compound 115]
+++ (>50 = +++) | 117 (KQQASQVLV; listed as Homo sapiens) [compound 117]

Peptide exchange | Substance
++++ (>75% = ++++) | 118 (TMIEICEKL; listed as Homo sapiens) [compound 118]
+++ (>50 = +++) | 119 (SLGLGFISRV; listed as Homo sapiens) [compound 119]
++++ (>75% = ++++) | 120 (QLMEGKVVL; listed as Homo sapiens) [compound 120]
+++ (>50 = +++) | 122 (YVDDFGVSV; listed as Homo sapiens) [compound 122]
++++ (>75% = ++++) | 123 (LLGEGIPSA; listed as Homo sapiens) [compound 123]
++++ (>75% = ++++) | 124 (FLPQKIIYL; listed as Homo sapiens) [compound 124]
++++ (>75% = ++++) | 125 (YLFAFLNHL; listed as Homo sapiens) [compound 125]
+++ (>50 = +++) | 126 (SLIDFVVTC; listed as Homo sapiens) [compound 126]
+++ (>50 = +++) | 127 (TLISDIEAVKA; listed as Homo sapiens) [compound 127]
+++ (>50 = +++) | 129 (VLPDDLSGV; listed as Homo sapiens) [compound 129]
+++ (>50 = +++) | 130 (GLVDVLYTA; listed as Homo sapiens) [compound 130]
+++ (>50 = +++) | 131 (FVDPNGKISL; listed as Homo sapiens) [compound 131]
++++ (>75% = ++++) | 132 (FLDASGAKL; listed as Homo sapiens) [compound 132]
++++ (>75% = ++++) | 134 (LLDEVLHTM; listed as Homo sapiens) [compound 134]
+++ (>50 = +++) | 135 (FLDDQETRL; listed as Homo sapiens) [compound 135]
+++ (>50 = +++) | 136 (FAYDGKDYIAL; listed as Homo sapiens) [compound 136]
+++ (>50 = +++) | 137 (ILPSNLLTV; listed as Homo sapiens) [compound 137]
+++ (>50 = +++) | 138 (YLDKTFYNL; listed as Homo sapiens) [compound 138]
+++ (>50 = +++) | 139 (AVDATVNQV; listed as Homo sapiens) [compound 139]
+++ (>50 = +++) | 140 (RLEAYLARV; listed as Homo sapiens) [compound 140]
+++ (>50 = +++) | 141 (YVIDPIKGL; listed as Homo sapiens) [compound 141]
+++ (>50 = +++) | 142 (FVDGSAIQV; listed as Homo sapiens) [compound 142]
++++ (>75% = ++++) | 143 (ILDDSALYL; listed as Homo sapiens) [compound 143]
+++ (>50 = +++) | 144 (SVDEVEISV; listed as Homo sapiens) [compound 144]

Peptide exchange | Substance
+++ (>50 = +++) | 145 (TLPNIYVTL; listed as Homo sapiens) [compound 145]
+++ (>50 = +++) | 146 (GVGPVPARA; listed as Homo sapiens) [compound 146]
+++ (>50 = +++) | 147 (ILDDQTNKL; listed as Homo sapiens) [compound 147]
+++ (>50 = +++) | 148 (TLKDIVQTV; listed as Homo sapiens) [compound 148]
++++ (>75% = ++++) | 149 (YLDTFALKL; listed as Homo sapiens) [compound 149]
++++ (>75% = ++++) | 150 (KLFPSPLQTL; listed as Homo sapiens) [compound 150]
++++ (>75% = ++++) | 151 (FLGEPASYLYL; listed as Homo sapiens) [compound 151]
++++ (>75% = ++++) | 152 (IMEDFTTFL; listed as Homo sapiens) [compound 152]
+++ (>50 = +++) | 153 (RLDEVSREL; listed as Homo sapiens) [compound 153]
++++ (>75% = ++++) | 154 (TLGTATFTV; listed as Homo sapiens) [compound 154]
+++ (>50 = +++) | 156 (ALMDTDGSGKLNL; listed as Homo sapiens) [compound 156]
+++ (>50 = +++) | 157 (HLFETISQA; listed as Homo sapiens) [compound 157]
+++ (>50 = +++) | 158 (KLIPSIIVL; listed as Homo sapiens) [compound 158]
++++ (>75% = ++++) | 159 (TILATVPLV; listed as Homo sapiens) [compound 159]
++++ (>75% = ++++) | 160 (ALDDISESI; listed as Homo sapiens) [compound 160]
++++ (>75% = ++++) | 161 (GLCDSIITI; listed as Homo sapiens) [compound 161]
+++ (>50 = +++) | 162 (TLDGNPFLV; listed as Homo sapiens) [compound 162]
+++ (>50 = +++) | 163 (RLMANPEALKI; listed as Homo sapiens) [compound 163]
++ (>20% = ++) | 164 (ALFFQLVDV; listed as Homo sapiens) [compound 164]
++++ (>75% = ++++) | 165 (ALIEVLQPLI; listed as Homo sapiens) [compound 165]
++++ (>75% = ++++) | 166 (SIIPPLFTV; listed as Homo sapiens) [compound 166]
++++ (>75% = ++++) | 167 (KVLGDVIEV; listed as Homo sapiens) [compound 167]
++++ (>75% = ++++) | 168 (KLLAATLLL; listed as Homo sapiens) [compound 168]
++++ (>75% = ++++) | 169 (TLLESIQHV; listed as Homo sapiens) [compound 169]
